Source: patent US20250145729A1 (DENALI THERAPEUTICS, published 2025)
Substitutions are numbered along the chain they refer to.

T1: human CD98hc (human, UniProt P08195 109-529)
T1 construct: also called huCD98hc; CD98 heavy chain
T1 sequence: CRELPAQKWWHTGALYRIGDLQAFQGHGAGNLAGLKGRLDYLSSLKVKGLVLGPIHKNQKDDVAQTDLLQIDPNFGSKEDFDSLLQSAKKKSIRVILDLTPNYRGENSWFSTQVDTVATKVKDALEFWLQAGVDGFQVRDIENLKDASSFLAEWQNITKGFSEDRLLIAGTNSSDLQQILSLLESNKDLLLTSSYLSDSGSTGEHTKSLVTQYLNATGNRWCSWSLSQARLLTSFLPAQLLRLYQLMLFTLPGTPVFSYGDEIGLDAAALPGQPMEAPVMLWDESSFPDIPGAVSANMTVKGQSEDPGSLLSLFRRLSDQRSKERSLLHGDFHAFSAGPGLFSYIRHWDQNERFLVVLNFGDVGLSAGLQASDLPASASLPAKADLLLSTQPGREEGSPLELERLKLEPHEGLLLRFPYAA

B1: LLB2-1 (Fc fusion)
chain: APELLGGPSVFLFPPKPKDTLMISRTPEVTCVVVDVSHEDPEVKFNWYVDGVEVHNAKTKPREEQYNSTYRVVSVLTVLHQDWLNGKEYKCKVSNKALPAPIEKTISKAKGQPREPQVYTLPPSRDELTKNQVSLTCLVKGFYPSDIAVLWNSRFSLENNYKTTPPVLDSDGSFFLYSKLTVDKSRWQQGNIFACNVLHEALHNHYTFKNLSLSPGK
notes: Fc part only
B2: LLB2-32 (Fc fusion)
chain: B1 chain with N152L, S153D, R154F, L198F, N210V, S212A
notes: Fc part only
B3: LLB2-10-6 (Fc fusion)
chain: B1 chain with S156V, L198Y, S212A
notes: Fc part only
B4: LLB2-10-8-d15 BV (Fc fusion)
chain: B1 chain with R154Q, F155Y, S156E, N191E, I192V, L198Y, S212A
notes: Fc part only; changes read against LLB2-10-8; BV = bivalent
B5: LLB2-10-8-d17 BV (Fc fusion)
chain: B1 chain with R154Q, F155Y, S156E, I192V, L198Y
notes: as for B4
B6: LLB2-10-8-d5 BV (Fc fusion)
chain: B1 chain with S156V, I192V, L198Y
notes: as for B4
B7: LLB2-2 (Fc fusion)
chain: B1 chain with L150I
notes: Fc part only
B8: LLB2-10-8 (Fc fusion)
chain: B1 chain with S156V, N191E, L198Y, S212A
notes: Fc part only
B9: LLB2-34 (Fc fusion)
chain: B1 chain with N152T, S153Q, R154F, S156A, L198I, N210V, L211P, S212Q
notes: Fc part only
B10: LLB2-10-4 (Fc fusion)
chain: B1 chain with A148V, S156V, S212A
notes: Fc part only
B11: LLB2-4 (Fc fusion)
chain: B1 chain with N152S
notes: Fc part only
B12: LLB2-10-8-d7 BV (Fc fusion)
chain: B1 chain with R154H, F155Y, S156E, N191E, L198Y
notes: as for B4
B13: LLB2-12 (Fc fusion)
chain: B1 chain with N204S
notes: Fc part only
B14: LLB2-10-8-d8 BV (Fc fusion)
chain: B1 chain with R154H, F155Y, S156E, N191E, I192V, L198Y
notes: as for B4
B15: LLB2-5 (Fc fusion)
chain: B1 chain with R154K
notes: Fc part only
B16: LLB2-10-8-d14 BV (Fc fusion)
chain: B1 chain with R154Q, F155Y, S156E, N191E, I192V, L198Y
notes: as for B4
B17: LLB2-10-8-d13 BV (Fc fusion)
chain: B1 chain with R154Q, F155Y, S156E, N191E, L198Y
notes: as for B4
B18: LLB2-10-8-d2 BV (Fc fusion)
chain: B1 chain with S156V, N191E, I192V, L198Y
notes: as for B4
B19: LLB2-7 (Fc fusion)
chain: B1 chain with F155Y
notes: Fc part only
B20: LLB2-10-9 (Fc fusion)
chain: B1 chain with A148V, S156V, N191E, L198Y, S212A
notes: Fc part only
B21: LLB2-27 (Fc fusion)
chain: B1 chain with N152M, S153N, R154H, S156T, L198M, N210P, S212P
notes: Fc part only
B22: LLB2-10-8-d9 BV (Fc fusion)
chain: B1 chain with R154H, F155Y, S156E, N191E, I192V, L198Y, S212A
notes: as for B4
B23: LLB2-10-8-d1 BV (Fc fusion)
chain: B1 chain with S156V, N191E, L198Y
notes: Fc part only; BV = bivalent
B24: LLB2-10-8-d16 BV (Fc fusion)
chain: B1 chain with R154Q, F155Y, S156E, L198Y
notes: as for B4
B25: LLS2.33.3 (Fc fusion)
chain: B1 chain with L150E, N152S, R154Q, F155Y, S156E, I192M, L198W
notes: Fc part only; also called LLB2.33.3
B26: LLB2-3 (Fc fusion)
chain: B1 chain with L150M
notes: Fc part only
B27: LLB2-10-8-d11 BV (Fc fusion)
chain: B1 chain with R154H, F155Y, S156E, I192V, L198Y
notes: as for B4
B28: LLB2-10-8-d4 BV (Fc fusion)
chain: B1 chain with S156V, L198Y
notes: as for B4
B29: LLB2-29 (Fc fusion)
chain: B1 chain with N152Y, S153D, R154L, S156V, N210E, L211P, S212F
notes: Fc part only
B30: LLB2-10-1 (Fc fusion)
chain: B1 chain with S156V, S212A
notes: Fc part only
B31: LLB2-10-8-d3 BV (Fc fusion)
chain: B1 chain with S156V, N191E, I192V, L198Y, S212A
notes: Fc part only; BV = bivalent
B32: LLB2-9 (Fc fusion)
chain: B1 chain with S156Q
notes: Fc part only
B33: LLB2-10-8-d18 BV (Fc fusion)
chain: B1 chain with R154Q, F155Y, S156E, I192V, L198Y, S212A
notes: Fc part only; BV = bivalent
B34: LLB2-10-13 (Fc fusion)
chain: B1 chain with R154Q, S156L, N191E, L198Y, S212Q
notes: Fc part only
B35: LLB2-10-8-d10 BV (Fc fusion)
chain: B1 chain with R154H, F155Y, S156E, L198Y
notes: as for B4
B36: LLB2-13 (Fc fusion)
chain: B1 chain with R154Q, S156L
notes: Fc part only
B37: LLB2-10-12 (Fc fusion)
chain: B1 chain with S156V, N191E, L198Y, S212Q
notes: Fc part only
B38: LLB2-19 (Fc fusion)
chain: B1 chain with A148V, N159A, Y161V, N191Q, Y206V, S212V
notes: Fc part only
B39: LLB2-10-11 (Fc fusion)
chain: B1 chain with S156L, N191E, L198Y, S212A
notes: Fc part only
B40: LLB2-10-5 (Fc fusion)
chain: B1 chain with S156V, N191E, S212A
notes: Fc part only
B41: LLB2-10-7 (Fc fusion)
chain: B1 chain with S156V, N204S, S212A
notes: Fc part only
B42: LLB2-10 (Fc fusion)
chain: B1 chain with S156V
notes: Fc part only
B43: LLB2-8 (Fc fusion)
chain: B1 chain with S156E
notes: Fc part only
B44: LLB2-10-8-d12 BV (Fc fusion)
chain: B1 chain with R154H, F155Y, S156E, I192V, L198Y, S212A
notes: Fc part only; BV = bivalent
B45: LLB2-11 (Fc fusion)
chain: B1 chain with L198M
notes: Fc part only
B46: LLB2-10-10 (Fc fusion)
chain: B1 chain with R154Q, S156V, N191E, L198Y, S212A
notes: Fc part only
B47: LLB2-10-8-d6 BV (Fc fusion)
chain: B1 chain with S156V, I192V, L198Y, S212A
notes: Fc part only; BV = bivalent

target: T1, human CD98hc; assay: SPR (Biacore)
Procedure, shortened: (§1)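 Binding affinity (Kd) of the engineered Fc polypeptides for CD98hc was measured by surface plasmon resonance on a Biacore instrument. Clones were cloned, expressed and purified as Fc-Fab fusions carrying anti-BACE1 Fabs. They were tested in a bivalent format or in a monovalent knob/hole format with the CD98hc-binding site on the knob chain only. The text gives no concentrations, temperature, buffer or replicate numbers.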

| Kd [nM] | binding result | Binder |
| --- | --- | --- |
| 950 | – | B1 |
| – | no binding | B2 |
| 460 | – | B3 |
| 1000 | – | B4 |
| 960 | – | B5 |
| 1470 | – | B6 |
| 1300 | – | B7 |
| 170 | – | B8 |
| – | no binding | B9 |
| 630 | – | B10 |
| 1700 | – | B11 |
| 410 | – | B12 |
| 990 | – | B13 |
| 820 | – | B14 |
| 1900 | – | B15 |
| 960 | – | B16 |
| 650 | – | B17 |
| 490 | – | B18 |
| 3600 | – | B19 |
| 250 | – | B20 |
| – | no binding | B21 |
| 840 | – | B22 |
| 280 | – | B23 |
| 650 | – | B24 |

| Kd [nM] | binding result | Binder |
| --- | --- | --- |
| 5400 | – | B25 |
| 1200 | – | B26 |
| 2400 | – | B27 |
| 670 | – | B28 |
| – | no binding | B29 |
| 795 | – | B30 |
| 490 | – | B31 |
| 750 | – | B32 |
| 880 | – | B33 |
| 260 | – | B34 |
| 1400 | – | B35 |
| 850 | – | B36 |
| 210 | – | B37 |
| 9200 | – | B38 |
| 230 | – | B39 |
| 390 | – | B40 |
| 1100 | – | B41 |
| 680 | – | B42 |
| 790 | – | B43 |
| 2100 | – | B44 |
| 1300 | – | B45 |
| 220 | – | B46 |
| 1480 | – | B47 |

target: T2, cyno CD98hc (cynomolgus monkey); assay: SPR (Biacore)
T2 construct: also called cynomolgus CD98hc; cyCD98hc
Procedure, shortened: as §1

| Kd [nM] | Binder |
| --- | --- |
| 4300 | B1 |
| 2100 | B3 |
| 4600 | B4 |
| 4100 | B5 |
| 5500 | B6 |
| 890 | B8 |
| 3000 | B10 |
| 2000 | B12 |
| 5000 | B13 |
| 3500 | B14 |
| 4050 | B16 |
| 2600 | B17 |
| 2300 | B18 |
| 1300 | B20 |
| 4200 | B22 |
| 1500 | B23 |
| 2500 | B24 |
| 7200 | B27 |

| Kd [nM] | Binder |
| --- | --- |
| 2600 | B28 |
| 4200 | B30 |
| 2600 | B31 |
| 3300 | B32 |
| 3010 | B33 |
| 1100 | B34 |
| 4200 | B35 |
| 3800 | B36 |
| 1200 | B37 |
| 1200 | B39 |
| 2200 | B40 |
| 6200 | B41 |
| 2700 | B42 |
| 3200 | B43 |
| 5970 | B44 |
| 8200 | B45 |
| 1100 | B46 |
| 5300 | B47 |
